Measured values published in patent US20220017589A1 (BEIJING QL BIOPHARMACEUTICAL, published 2022).
Numbering of substitutions follows the chain as printed. Values belong to the binder of their own block, whether it stands above or below them.

Experiments:
[1] = biological target: T1, human GFRAL (human, UniProt Q6UXV0 19-394); assay: cell-based or functional assay
T1 sequence (looked up): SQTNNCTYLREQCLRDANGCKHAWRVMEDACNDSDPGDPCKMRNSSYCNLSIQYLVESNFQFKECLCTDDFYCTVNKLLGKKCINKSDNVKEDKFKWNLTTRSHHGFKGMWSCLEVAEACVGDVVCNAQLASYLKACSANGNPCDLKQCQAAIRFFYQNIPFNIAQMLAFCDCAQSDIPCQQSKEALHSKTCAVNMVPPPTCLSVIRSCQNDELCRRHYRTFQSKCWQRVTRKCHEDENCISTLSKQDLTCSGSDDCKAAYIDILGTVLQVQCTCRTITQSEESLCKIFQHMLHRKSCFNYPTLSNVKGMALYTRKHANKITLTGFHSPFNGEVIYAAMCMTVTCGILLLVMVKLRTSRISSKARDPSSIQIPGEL

[2] = biological target: human GLP-1 receptor (human, UniProt P43220 24-463); assay: cell-based or functional assay

GDF15 activity (EC50, pM) [1]: 67.3 pM
GLP-1 activity (EC50, pM) [2]: 5.7 pM
B2: MLC021 (ligand)
chain: HGEGTFTSDVSSYLEEQAAKEFIAWLVRGGGGQEPGAQPGQEPGAQPGQEPGAQPGQEPGAQPGQEPGAQPGQEPGAQPGAQPGAQPGAQPGAQPGAQPGAQPGAQPGAQPARQGDHCPLGPGRCCRLHTVRASLEDLGWADWVLSPREVQVTMCIGACPSQFRAANLHAQIKTSLHRLKPDTVPAPCCVPASYNPMVLIQKTDTGVSLQTYDDLLAKDCHCI

GDF15 activity (EC50, pM) [1]: 116 pM
GLP-1 activity (EC50, pM) [2]: 1.3 pM
B4: MLC064 (ligand)
chain: B2 chain with K20R, Q82K, K180R, K202R, K218R
modifications: Moiety A (HOOC-(CH2)16-CO-gGlu-2XADO) on 51K of Linker (82K of fusion polypeptide)

GDF15 activity (EC50, pM) [1]: 48.8 pM
GLP-1 activity (EC50, pM) [2]: 6.9 pM
B5: MLC013 (ligand)
chain: B2 chain with K20R, G32K, K180R, K202R, K218R
modifications: Moiety A (HOOC-(CH2)16-CO-gGlu-2XADO) on 1K of Linker (32K of fusion polypeptide)

GDF15 activity (EC50, pM) [1]: 80.5 pM
GLP-1 activity (EC50, pM) [2]: 8 pM
B8: MLC019 (ligand)
chain: B2 chain with K180R, K202R, K218R

GDF15 activity (EC50, pM) [1]: 52.3 pM
GLP-1 activity (EC50, pM) [2]: 0.9 pM
B10: MLC030 (ligand)
chain: HGEGTFTSDVSSYLEEQAAREFIAWLVRGGGGQEPGQEPGQEPGQKPGQEPGQEPGQEPGQEPGAQPGAQPGAQPGAQPGAQPGAQPGAQPGAQPGAQPGAQPGAQPGAQPARQGDHCPLGPGRCCRLHTVRASLEDLGWADWVLSPREVQVTMCIGACPSQFRAANLHAQIKTSLHRLRPDTVPAPCCVPASYNPMVLIQRTDTGVSLQTYDDLLARDCHCI
modifications: Moiety A (HOOC-(CH2)16-CO-gGlu-2XADO) on 15K of Linker (46K of fusion polypeptide)

GDF15 activity (EC50, pM) [1]: 11.6 pM
GLP-1 activity (EC50, pM) [2]: 28.7 pM
B12: MLC006 (ligand)
chain: HGEGTFTSDVSSYLEEQAAREFIAWLVRGKGGQEPGQEPGQEPGQEPGQEPGQEPGQEPGQEPGAQPGAQPARQGDHCPLGPGRCCRLHTVRASLEDLGWADWVLSPREVQVTMCIGACPSQFRAANLHAQIKTSLHRLRPDTVPAPCCVPASYNPMVLIQRTDTGVSLQTYDDLLARDCHCI
modifications: Moiety A (HOOC-(CH2)16-CO-gGlu-2XADO) on 36K of GLP-1 (30K of fusion polypeptide)

GDF15 activity (EC50, pM) [1]: 24.6 pM
GLP-1 activity (EC50, pM) [2]: 1.8 pM
B13: MLC009 (ligand)
chain: B12 chain with K30G, E46K
modifications: Moiety A (HOOC-(CH2)16-CO-gGlu-2XADO) on 15K of Linker (46K of fusion polypeptide)

GDF15 activity (EC50, pM) [1]: 55.9 pM
B18: MLC020 (ligand)
chain: B12 chain with R20K, K30G, R140K, R162K, R178K

GDF15 activity (EC50, pM) [1]: 55 pM
GLP-1 activity (EC50, pM) [2]: 7.8 pM
B19: MLC003 (ligand)
chain: B12 chain with R20K, K30G

GDF15 activity (EC50, pM) [1]: 39 pM
GLP-1 activity (EC50, pM) [2]: 1.8 pM
B20: MLC043 (ligand)
chain: HGEGTFTSDVSSYLEEQAAKEFIAWLVRGGGGQEPGAQPGQEPGAQPGQEPGAQPGQEPGAQPGQEPGAQPGQEPGAQPGAQPGAQPGAQPARQGDHCPLGPGRCCRLHTVRASLEDLGWADWVLSPREVQVTMCIGACPSQFRAANLHAQIKTSLHRLRPDTVPAPCCVPASYNPMVLIQRTDTGVSLQTYDDLLARDCHCI
modifications: Moiety A (HOOC-(CH2)16-CO-gGlu-2XADO) on 26K of GLP-1 (20K of fusion polypeptide)

GDF15 activity (EC50, pM) [1]: 45.4 pM
B23: MLC027 (ligand)
chain: HGEGTFTSDVSSYLEEQAAREFIAWLVRGGGGAQPGAQPGAQPGAQPGAQPGAQPGAQPGAQPGQEPGAQPGQEPGAQPGQEPGQKPGQEPGQEPGQEPGQEPGAQPGAQPARQGDHCPLGPGRCCRLHTVRASLEDLGWADWVLSPREVQVTMCIGACPSQFRAANLHAQIKTSLHRLRPDTVPAPCCVPASYNPMVLIQRTDTGVSLQTYDDLLARDCHCI
modifications: Moiety A (HOOC-(CH2)16-CO-gGlu-2XADO) on 55K of Linker (86K of fusion polypeptide)

GDF15 activity (EC50, pM) [1]: 29 pM
GLP-1 activity (EC50, pM) [2]: 2.5 pM
B25: MLC102 (ligand)
chain: HGEGTFTSDVSSYLEEQAAKEFIAWLVRGGGGQEPGAQPGQEPGAQPGQEPGAQPGQEPGAQPGQEPGAQPGQEPGAQPGAQPGAQPGAQPGAQPGAQPGAQPGAQPGAQPGAQPGAQPGAQPGAQPGAQPGAQPGAQPGAQPGAQPGAQPARQGDHCPLGPGRCCRLHTVRASLEDLGWADWVLSPREVQVTMCIGACPSQFRAANLHAQIKTSLHRLKPDTVPAPCCVPASYNPMVLIQKTDTGVSLQTYDDLLAKDCHCI

GDF15 activity (EC50, pM) [1]: 59.2 pM
GLP-1 activity (EC50, pM) [2]: 6.7 pM
B26: MLC022 (ligand)
chain: HGEGTFTSDVSSYLEEQAAKEFIAWLVRGGGGQEPGQEPGQEPGQEPGQEPGQEPARQGDHCPLGPGRCCRLHTVRASLEDLGWADWVLSPREVQVTMCIGACPSQFRAANLHAQIKTSLHRLKPDTVPAPCCVPASYNPMVLIQKTDTGVSLQTYDDLLAKDCHCI

The remaining lines, values behind:

B1: MLC097 (ligand)
chain: EGTFTSDVSSYLEEQAAKEFIAWLVRGGGGQEPGAQPGQEPGAQPGQEPGAQPGQEPGAQPGQEPGAQPGQEPGAQPGAQPGAQPGAQPGAQPGAQPGAQPGAQPGAQPARQGDHCPLGPGRCCRLHTVRASLEDLGWADWVLSPREVQVTMCIGACPSQFRAANLHAQIKTSLHRLKPDTVPAPCCVPASYNPMVLIQKTDTGVSLQTYDDLLAKDCHCI
GDF15 activity (EC50, pM) [1]: 32.9 pM
GLP-1 activity (EC50, pM) [2]: > 900 pM

B3: MLC004 (ligand)
chain: B2 chain with K180R, K202R, K218R
modifications: Moiety A (HOOC-(CH2)16-CO-gGlu-2XADO) on 26K of GLP-1 (20K of fusion polypeptide)
GDF15 activity (EC50, pM) [1]: 17.3 pM
GLP-1 activity (EC50, pM) [2]: 8.3 pM

B6: MLC096 (ligand)
chain: B2 chain with V198R
GDF15 activity (EC50, pM) [1]: > 5000 pM
GLP-1 activity (EC50, pM) [2]: 1.3 pM

B7: MLC016 (ligand)
chain: B2 chain with K20R, P83K, K180R, K202R, K218R
modifications: Moiety A (HOOC-(CH2)16-CO-gGlu-2XADO) on 52K of Linker (83K of fusion polypeptide)
GDF15 activity (EC50, pM) [1]: 110 pM
GLP-1 activity (EC50, pM) [2]: 2.5 pM

B9: MLC047 (ligand)
chain: B2 chain with K20R, P71K, K180R, K202R, K218R
modifications: Moiety A (HOOC-(CH2)16-CO-gGlu-2XADO) on 40K of linker (71K of fusion polypeptide) per Table 2; Table 3 prints 41K of linker
GDF15 activity (EC50, pM) [1]: 59.4 pM
GLP-1 activity (EC50, pM) [2]: 1 pM

B11: MLC023 (ligand)
chain: HGEGTFTSDVSSYLEEQAAKEFIAWLVRGGGGQEPGQEPGQEPARQGDHCPLGPGRCCRLHTVRASLEDLGWADWVLSPREVQVTMCIGACPSQFRAANLHAQIKTSLHRLKPDTVPAPCCVPASYNPMVLIQKTDTGVSLQTYDDLLAKDCHCI
GDF15 activity (EC50, pM) [1]: 62.8 pM
GLP-1 activity (EC50, pM) [2]: 4 pM

B14: MLC008 (ligand)
chain: B12 chain with K30G, Q37K
modifications: Moiety A (HOOC-(CH2)16-CO-gGlu-2XADO) on 6K of Linker (37K of fusion polypeptide)
GDF15 activity (EC50, pM) [1]: 15.3 pM
GLP-1 activity (EC50, pM) [2]: 4.3 pM

B15: MLC007 (ligand)
chain: B12 chain with K30G, G32K
modifications: Moiety A (HOOC-(CH2)16-CO-gGlu-2XADO) on 1K of Linker (32K of fusion polypeptide)
GDF15 activity (EC50, pM) [1]: 9.5 pM
GLP-1 activity (EC50, pM) [2]: 5.9 pM

B16: MLC002 (ligand)
chain: B12 chain with R20K, K30G
modifications: Moiety A (HOOC-(CH2)16-CO-gGlu-2XADO) on 26K of GLP-1 (20K of fusion polypeptide)
GDF15 activity (EC50, pM) [1]: 17.9 pM
GLP-1 activity (EC50, pM) [2]: 13.1 pM

B17: MLC012 (ligand)
chain: B12 chain with K30G, P43K, A65Q, Q66E, A69Q, Q70E
modifications: Moiety A (HOOC-(CH2)16-CO-gGlu-2XADO) on 12K of Linker (43K of fusion polypeptide)
GDF15 activity (EC50, pM) [1]: 32.8 pM
GLP-1 activity (EC50, pM) [2]: 3.5 pM

B21: MLC124 (ligand)
chain: B20 chain
GDF15 activity (EC50, pM) [1]: 27.5 pM
GLP-1 activity (EC50, pM) [2]: 2.5 pM

B22: MLC026 (ligand)
chain: B23 chain with Q65A, E66Q, A77Q, Q78E
modifications: Moiety A (HOOC-(CH2)16-CO-gGlu-2XADO) on 55K of Linker (86K of fusion polypeptide)
GDF15 activity (EC50, pM) [1]: 56.1 pM

B24: MLC100 (ligand)
chain: HGEGTFTSDVSSYLEEQAAKEFIAWLVRGGGGQEPARQGDHCPLGPGRCCRLHTVRASLEDLGWADWVLSPREVQVTMCIGACPSQFRAANLHAQIKTSLHRLKPDTVPAPCCVPASYNPMVLIQKTDTGVSLQTYDDLLAKDCHCI
GDF15 activity (EC50, pM) [1]: 29.9 pM
GLP-1 activity (EC50, pM) [2]: 3.1 pM
